Data published in US20200181247A1.

Tests used:
[1] = target: A-beta42 Monomer (human); assay: SPR (MASS-1) direct binding; hybridoma culture supernatant over immobilized A-beta42 monomer
[2] = target: A-beta42 Monomer (human); assay: SPR; purified antibody immobilized, A-beta preparation flowed over
[3] = target: A-beta42 Oligomer (synthetic, prepared in F12 medium) (human); assay: as above
[4] = target: commercially-prepared stable A-beta42 Oligomers (SynAging SAS) (human); assay: SPR; antibody covalently immobilized, stable A-beta42 oligomers (1 microM) injected
commercially-prepared stable A-beta42 Oligomers (SynAging SAS) (human), sequence (peptide, as listed by the source): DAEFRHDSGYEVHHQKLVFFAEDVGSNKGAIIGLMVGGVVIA

[5] = target: T1, linear CGHHQKG (SEQ ID NO: 12) conjugated to BSA; assay: SPR (MASS-1) direct binding; hybridoma culture supernatant over immobilized BSA-conjugated peptide
T1 sequence (peptide, linear (not cyclized); conjugated to BSA): CGHHQKG

[6] = target: T2, cyclo(CGHHQKG) (SEQ ID NO: 12) conjugated to BSA; assay: as above
T2 sequence (peptide, cyclic peptide, cyclo(CGHHQKG); conjugated to BSA): CGHHQKG

[7] = target: A-beta42 Oligomer (synthetic, prepared in F12 medium) (human); assay: SPR (MASS-1) direct binding; hybridoma culture supernatant over immobilized A-beta42 oligomer

A-beta42 Oligomer (synthetic, prepared in F12 medium) (human), sequence (peptide, as listed by the source): as above
A-beta42 Monomer (human), sequence (peptide, as listed by the source): as above

B1: 301-3 (antibody, part only; not given: Light chain, two candidates, IgG3, V domains shown, part only)
VH: EVQLVESGGGLVKPGGSLKLSCAASGFTFSDYYMYWVRQTPEKRLEWVATISDGGSYTSYPDSVKGRFTISRDSAKNNLYLQMSSLKSEDTAMYYCARDYYGSNSYTSGFAYWGQGTLVTVSA
[1]
  binding response (RU): -1.8 RU
[2]
  binding response (RU): -23.8 RU
[3]
  binding response (RU): 15.5 RU
[4]
  binding response units (BRUs), average: 14.5 BRU
[5]
  binding response (RU): 60.6 RU
[6]
  binding response (RU): 469 RU
[7]
  binding response (RU): 56.8 RU
